This is an account of results in patent US20230374071A1, “COMPOSITIONS FOR INDUCING URINARY VOIDING AND DEFECATION” (Dignify Therapeutics, LLC, priority 2020, published 2023).

To fix the notation:
B1: Compound G (Lys-Asp-Ser-Phe-Val-gc-Nle-NH2) (peptide)
peptide: KDSFV[gc][Nle]-NH2
modifications: N-terminus assumed
SMILES: CCCC[C@H](NC(=O)[C@H](CC(C)C)N1CC[C@@H](NC(=O)[C@@H](NC(=O)[C@H](Cc2ccccc2)NC(=O)[C@H](CO)NC(=O)[C@H](CC(=O)O)NC(=O)[C@@H](N)CCCCN)C(C)C)C1=O)C(N)=O
B2: Compound F (Asp-Arg-Phe-Val-gc-Nle-NH2) (peptide)
peptide: DRFV[gc][Nle]-NH2
modifications: N-terminus assumed
SMILES: CCCC[C@H](NC(=O)[C@H](CC(C)C)N1CC[C@@H](NC(=O)[C@@H](NC(=O)[C@H](Cc2ccccc2)NC(=O)[C@H](CCCNC(=N)N)NC(=O)[C@@H](N)CC(=O)O)C(C)C)C1=O)C(N)=O
B3: Compound D (Asp-Lys-Phe-Val-gc-Nle-NH2) (peptide)
peptide: DKFV[gc][Nle]-NH2
modifications: N-terminus assumed
SMILES: CCCC[C@H](NC(=O)[C@H](CC(C)C)N1CC[C@@H](NC(=O)[C@@H](NC(=O)[C@H](Cc2ccccc2)NC(=O)[C@H](CCCCN)NC(=O)[C@@H](N)CC(=O)O)C(C)C)C1=O)C(N)=O
B4: Compound A (Asp-Ser-Phe-Val-gc-Met-NH2) (peptide)
peptide: XDSFVM
modifications: gc = Gly-(R-gamma-lactam)-Leu, (S)-2-((R)-3-amino)-2-oxopyrrolidin-1-yl)-4-methylpantanoyl moiety, between Val and Met; C-terminal amide (Met-NH2)
B5: Compound J (Lys-Asp-Ser-Phe-Val-(β-Ala)-Leu-Nle-NH2) (peptide)
peptide: KDSFV[βAla]L[Nle]-NH2
modifications: N-terminus assumed
SMILES: CCCC[C@H](NC(=O)[C@H](CC(C)C)NC(=O)CCNC(=O)[C@@H](NC(=O)[C@H](Cc1ccccc1)NC(=O)[C@H](CO)NC(=O)[C@H](CC(=O)O)NC(=O)[C@@H](N)CCCCN)C(C)C)C(N)=O
B6: Compound E (Asp-Arg-Phe-Val-gc-Met-NH2) (peptide)
peptide: DRFV[gc]M-NH2
modifications: N-terminus assumed
SMILES: CSCC[C@H](NC(=O)[C@H](CC(C)C)N1CC[C@@H](NC(=O)[C@@H](NC(=O)[C@H](Cc2ccccc2)NC(=O)[C@H](CCCNC(=N)N)NC(=O)[C@@H](N)CC(=O)O)C(C)C)C1=O)C(N)=O

Starred links: 1 amine or outer side, 2 acyl side, 3 side chain; linkers in the order of their positions; H or OH if unused. Non-standard residues stand in square brackets, D forms with d. No end group written: not given here. gc = gamma constrained Gly-(R-gamma-lactam)-Leu moiety, (S)-2-((R)-3-amino)-2-oxopyrrolidin-1-yl)-4-methylpentanoyl, between Val and the C-terminal residue, CC(C)C[C@@H](C(=O)[*:2])N1CC[C@@H](N[*:1])C1=O; Nle = CCCC[C@H](N)C(=O)O; βAla = NCCC(=O)O Where only a bound is given, the exact number is not on record here.

T2 sequence (P25103 whole entry): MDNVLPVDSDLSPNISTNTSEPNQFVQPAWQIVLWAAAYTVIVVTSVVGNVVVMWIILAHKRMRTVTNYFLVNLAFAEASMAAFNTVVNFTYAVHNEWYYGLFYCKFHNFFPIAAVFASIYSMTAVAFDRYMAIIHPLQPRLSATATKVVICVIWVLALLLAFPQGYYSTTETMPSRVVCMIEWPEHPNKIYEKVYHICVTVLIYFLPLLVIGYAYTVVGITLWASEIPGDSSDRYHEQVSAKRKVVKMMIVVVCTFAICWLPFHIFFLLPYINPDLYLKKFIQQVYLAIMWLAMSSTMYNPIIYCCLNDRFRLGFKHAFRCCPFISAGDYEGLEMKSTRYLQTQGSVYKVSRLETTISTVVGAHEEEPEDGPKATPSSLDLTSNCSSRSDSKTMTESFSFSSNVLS

The target of one test is T1, human neurokinin 2 receptor (human, UniProt P21452 1-398).
T1 sequence (looked up): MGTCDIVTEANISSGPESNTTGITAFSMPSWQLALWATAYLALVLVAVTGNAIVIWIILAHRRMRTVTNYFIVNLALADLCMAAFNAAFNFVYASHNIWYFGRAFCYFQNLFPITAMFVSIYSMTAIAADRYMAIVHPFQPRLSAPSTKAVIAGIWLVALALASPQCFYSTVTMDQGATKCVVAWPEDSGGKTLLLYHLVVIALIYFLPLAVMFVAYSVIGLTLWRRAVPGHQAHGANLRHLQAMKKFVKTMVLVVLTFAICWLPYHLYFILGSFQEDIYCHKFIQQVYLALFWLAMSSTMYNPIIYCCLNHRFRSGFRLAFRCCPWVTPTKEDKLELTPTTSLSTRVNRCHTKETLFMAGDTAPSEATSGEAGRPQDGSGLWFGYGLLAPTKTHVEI
The experiment in a line: cell-based or functional assay.
Regarding B1, the maximal calcium response was ≥ 85 % maximal response compared to Neurokinin A.

Take B2: the maximal calcium response is ≥ 85 % maximal response compared to Neurokinin A.

Take B3: the maximal calcium response is ≥ 85 % maximal response compared to Neurokinin A.

Regarding B4, the maximal calcium response was ≥ 85 % maximal response compared to Neurokinin A.

As to B5, the maximal calcium response is ≥ 85 % maximal response compared to Neurokinin A.

For B6, the maximal calcium response was ≥ 85 % maximal response compared to Neurokinin A.

The next test has as its target T2, human neurokinin 1 receptor (human, UniProt P25103 1-407). The experiment in a line: cell-based or functional assay.
With B1, the maximal calcium response was ≥ 73 % maximal response compared to Substance P.

As for B2, the maximal calcium response is ≥ 85 % maximal response compared to Substance P.

On to B3, for which the maximal calcium response was ≥ 85 % maximal response compared to Substance P.

With B4, the maximal calcium response was ≥ 85 % maximal response compared to Substance P.

Take B5: the maximal calcium response was ≥ 85 % maximal response compared to Substance P.

Turning to B6, the maximal calcium response was ≥ 85 % maximal response compared to Substance P.

The target in another test is T1, human neurokinin 2 receptor. The experiment in a line: cell-based or functional assay. The source holds these as a separate data set.
As to B1, the NK2R/NK1R selectivity ratio came to 206 fold and the “hNK2R pEC50 (intracellular calcium mobilization, FLIPR, CHO cells)” value amounted to 8.11.

In the case of B2, the NK2R/NK1R selectivity ratio was 93 fold and the “hNK2R pEC50 (intracellular calcium mobilization, FLIPR, CHO cells)” value was determined as 8.6.

As for B3, the NK2R/NK1R selectivity ratio was 132 fold and the “hNK2R pEC50 (intracellular calcium mobilization, FLIPR, CHO cells)” value came out at 8.44.

In the case of B4, the NK2R/NK1R selectivity ratio is 724 fold and the “hNK2R pEC50 (intracellular calcium mobilization, FLIPR, CHO cells)” value came to 9.17.

Regarding B5, the NK2R/NK1R selectivity ratio stood at 23 fold and the “hNK2R pEC50 (intracellular calcium mobilization, FLIPR, CHO cells)” value was found to be 7.88.

B6: the NK2R/NK1R selectivity ratio amounted to 90 fold and the “hNK2R pEC50 (intracellular calcium mobilization, FLIPR, CHO cells)” value is 9.71.

In the next test the target is T2, human neurokinin 1 receptor. The experiment in a line: cell-based or functional assay. The source holds these as a separate data set.
On to B1, for which the “hNK1R pEC50 (intracellular calcium mobilization, FLIPR, CHO cells)” value worked out at 5.79.

With B2, the “hNK1R pEC50 (intracellular calcium mobilization, FLIPR, CHO cells)” value amounted to 6.63.

Consider B3, for which the “hNK1R pEC50 (intracellular calcium mobilization, FLIPR, CHO cells)” value was found to be 6.32.

For B4, the “hNK1R pEC50 (intracellular calcium mobilization, FLIPR, CHO cells)” value was found to be 6.31.

As for B5, the “hNK1R pEC50 (intracellular calcium mobilization, FLIPR, CHO cells)” value was 6.52.

Consider B6, for which the “hNK1R pEC50 (intracellular calcium mobilization, FLIPR, CHO cells)” value was 7.76.
